Assay results from US20160251436A1 (PD 1 ACQUISITION GROUP, published 2016).
Substitutions are numbered along the chain they refer to. One block for each binder: values may come before it.

Tests used:
PD-1-HIS = biological target: T1, PD-1-HIS (human, UniProt Q15116); assay: ELISA, supernatant of transfected HEK293 cells on PD-1-HIS(tag), OD 450 nm, average of two experiments
T1 construct: soluble extracellular domain; May be the same protein as m2; also called PD-1-HIS(tag); PD-1-His Tag (Sino Biological #10377-H08H-50)

[1] = biological target: T2, human Programmed Death-1 (PD-1) expressed on the cell surface (human, UniProt Q15116 25-288); assay: cell binding, HEK293 cells expressing human PD-1, fluorescent anti-mouse secondary
T2 construct: whole, on cells; also called CD279; Human PD-1 Expressed on HEK293 Surface
Protocol: Recombinant antibodies from cultured supernatants were also used in cell-based binding studies. HEK293 cells were transfected (Qiagen, SuperFect) with expression plasmids encoding the Ig heavy and light chains of anti-PD-1 antibodies. After 3-5 days, recombinant antibodies in the supernatants of transfected cells were harvested. Stable HEK293 cells expressing human PD-1 or primary cells were used for the cell-based binding confirmation studies. Antibodies from cultured supernatants were assessed for binding to cell surface PD-1 using fluorescently labeled anti-mouse IgG (polyclonal) antibody (Jackson Immunoresearch).
In both studies, commercially available mouse anti-PD-1 antibody and isotype control mouse IgG1 […] were used as controls. […] Strong binding is denoted as “+++”, medium binding is denoted as “++”, and weak binding is denoted as “+”.

T1 sequence (Q15116 25-167 limits assumed): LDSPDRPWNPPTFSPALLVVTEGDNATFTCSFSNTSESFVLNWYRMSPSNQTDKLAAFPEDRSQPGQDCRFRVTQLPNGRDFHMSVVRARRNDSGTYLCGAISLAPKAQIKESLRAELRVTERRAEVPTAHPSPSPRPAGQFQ
T2 sequence (Q15116 25-288): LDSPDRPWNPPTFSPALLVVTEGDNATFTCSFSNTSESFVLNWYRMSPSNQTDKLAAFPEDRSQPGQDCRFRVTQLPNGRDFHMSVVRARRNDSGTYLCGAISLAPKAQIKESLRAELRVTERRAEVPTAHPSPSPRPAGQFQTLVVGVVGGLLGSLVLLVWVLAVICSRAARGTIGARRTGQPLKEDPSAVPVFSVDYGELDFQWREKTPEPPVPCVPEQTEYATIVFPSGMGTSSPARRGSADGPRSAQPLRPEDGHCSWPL

B1: 100413_H1VH3_100414_H1VK6 (antibody, V domains shown)
VH: EVQLQESGPSLVQPSQSLSITCTVSGFSLTNYGVHWVRQSPGKGLEWLGVIWRGGNTDYNAAFMSRLSITKDNSKSQVFFKFHSLQTDDTAIYYCAASMIGGYWGQGTTLTVSS
VL: DIVLTQSPLSLPVSLGDQASISCRSSQSIVHSDGNTYLEWYLQKPGQSPKLLIYKVSNRFSGVPDRFSGSGSGTDFTLKISRVEAEDLGIYYCFQGSHVPLTFGAGTKLELK
notes: Mouse variable regions; cloned into pFUSE-CHIg-mG1 (murine IgG1 Fc), expressed in HEK293
- binding result (PD-1-HIS): binds

B2: 100388_H4VH1_100389_H4VK4 (antibody, V domains shown)
VH: EVQLQESGPGLVAPSQSLSITCTVSGFSLTNYGVDWVRQSPGKGLEWLGVIWGVGSTNYNSALKSRLSISKDNSKSQVFLKMNSLQTDDTAMYYCASDGFVYWGQGTLVTVSS
VL: DIVLTQDELSNPVTSGESVSISCRSSKSLLYKDGKTYLNWFLQRPGQSPQVLIYFMSTRASGVSDRFSGSGSGTDFTLEISRVKAEDVGVYYCQQLVDFPFTFGSGTKLELK
notes: as for B1
- binding result (PD-1-HIS): binds

B4: 100411_C2VH3_100412_C2VK7 (antibody, V domains shown)
VH: EVQLQESGPGLVKPSQSLSLTCTVTGYSITSDYAWNWIRQFPGNKLEWMGYITYSGSPTYNPSLKSQFSITRDTSKNQFFLQLNSVTTEDTATYYCARGLGGHYFDYWGQGTTLTVSS
VL: DIVLTQTTATLSVTPGDRVSLSCRASQSISDYLHWYQQKSHESPRLLIKYASQSISGIPSRFSGSGSGSDFTLTVNSVEPEDVGVYYCQNGHSYPYTFGGGTKLEIK
notes: as for B1
- binding result [1]: binds
- binding result (PD-1-HIS): binds

B8: 100394_F1VH8_100395_F1VK4 (antibody, V domains shown)
VH: EVQLQESGPELVKPGASVKIPCKASGYTFTDYNMDWVKQSHGKSLEWIGDIDPNNGGTIYNQNFKGKATLTVDKSSSTAYMELRSLTSEDTAVYYCARWRSSMDYWGQGTSVTVSS
VL: DIVLTQSPSSLSASLGDRVTISCSASQGISNYLNWYQQKPDGTVKLLIYYTSSLHSGVPSRFSGSGSGTDYSLTISNLEPEDIATYYCQQYSKLPWTFGGGTKLEIK
notes: as for B1
- binding result (PD-1-HIS): binds

B9: 100388_C1VH2_100389_C1VK2 (antibody, V domains shown)
VH: B8 VH with T58I, N63K, T69A
VL: B8 VL with S7T
notes: Mouse variable regions; cloned into pFUSE-CHIg-mG1 (murine IgG1 Fc), expressed in HEK293; also called 388C12B
- binding result [1]: binds
- binding result (PD-1-HIS): binds

The next lines start with results.

- binding result (PD-1-HIS): binds
B3: 100392_C3VH7_100393_C3VK10 (antibody, V domains shown)
VH: B2 VH with N31S, V54I, T87S
VL: B2 VL with L4M, S10Y, L111I
notes: as for B1

- binding result (PD-1-HIS): binds
B5: 100244_C7VH10_100245_C8VK5 (antibody, V domains shown)
VH: EVQLQESGPELVRPGASVKMSCKASGYTFTSYWMHWVKQRPGQGLEWIGMIDPSNSETSLNQKFKDKATLNVDKSSKTAYMQLSSLTSEDSAVYYCARSRGNYAYDMDYWGQGTSVTVSS
VL: DIVITQTTAIMSASPGEKVTLTCSASSSVSSNYLYWYQQRPGSSPKLWIYSTSNLASGVPARFSGSGSGTSYSLTISSMEAEDAASYFCHQWSSYPPTFGSGTKLEIK
notes: as for B1
- binding result [1]: binds

- binding result (PD-1-HIS): binds
B6: 100258_F6VH4_100259_F6VK1m1 (antibody, V domains shown)
VH: B5 VH with D52E, N55S, K77N, D106E
VL: B5 VL with I4M, T8P, I10T, S30N, R40K, L47V, I107L
notes: Mouse variable regions; cloned into pFUSE-CHIg-mG1 (murine IgG1 Fc), expressed in HEK293; also called 258F6m
- binding result [1]: binds

- binding result (PD-1-HIS): binds
B7: 100244_C7VH10_100245_C8VK5m1 (antibody, V domains shown)
VH: B5 VH
VL: B5 VL with I4L, T8P
notes: Mouse variable regions; cloned into pFUSE-CHIg-mG1 (murine IgG1 Fc), expressed in HEK293; also called 244C7m1
- binding result [1]: binds

- binding result (PD-1-HIS): binds
B10: 100388_C1VH2_100389_C1VK1 (antibody, V domains shown)
VH: B8 VH with T58I, N63K, T69A
VL: B8 VL with L4M, G28D, N31S, K93E
notes: Mouse variable regions; cloned into pFUSE-CHIg-mG1 (murine IgG1 Fc), expressed in HEK293; also called 388C12A
- binding result [1]: binds

- binding result (PD-1-HIS): binds
B11: 100392_B4VH10_100393_B4VK10 (antibody, V domains shown)
VH: B8 VH with K13R, K38M, N63K, A97T
VL: B8 VL with L4M, S53N, N77D, E79A, K93Y
notes: as for B1
